According to patent US20190211076A1 (published 2019):

B1: TCR1 (TCR, V domains shown)
Valpha: QQGEEDPQALSIQEGENATMNCSYKTSINNLQWYRQNSGRGLVHLILIRSNEREKHSGRLRVTLDTSKKSSSLLITASRAADTASYFCATKRDSGAGSYQLTFGKGTKLSVIP
Vbeta: GVSQDPRHKITKRGQNVTFRCDPISEHNRLYWYRQTLGQGPEFLTYFQNEAQLEKSRLLSDRFSAERPKGSFSTLEIQRTEQGDSAMYLCASSSTGGHNEQFFGPGTRLTVL
B2: TCR5 (TCR, V domains shown)
Valpha: QQGEEDPQALSIQEGENATMNCSYKTSINNLQWYRQNSGRGLVHLILIRSNEREKHSGRLRVTLDTSKKSSSLLITASRAADTASYFCATNSGNTPLVFGKGTRLSVIA
Vbeta: GVSQDPRHKITKRGQNVTFRCDPISEHNRLYWYRQTLGQGPEFLTYFQNEAQLEKSRLLSDRFSAERPKGSFSTLEIQRTEQGDSAMYLCASSLTTLDEQYVGPGTRLTVT
B3: TCR10 (TCR, V domains shown)
Valpha: KNQVEQSPQSLIILEGKNCTLQCNYTVSPFSNLRWYKQDTGRGPVSLTIMTFSENTKSNGRYTATLDADTKQSSLHITASQLSDSASYICVVDSGGGADGLTFGKGTHLIIQP
Vbeta: GVSQDPRHKITKRGQNVTFRCDPISEHNRLYWYRQTLGQGPEFLTYFQNEAQLEKSRLLSDRFSAERPKGSFSTLEIQRTEQGDSAMYLCASSMLTNYEQYFGPGTRLTVT
B4: HA-1H TCR2 (TCR, V domains shown)
Valpha: KQEVTQIPAALSVPEGENLVLNCSFTDSAIYNLQWFRQDPGKGLTSLLLIQSSQREQTSGRLNASLDKSSGRSTLYIAASQPGDSATYLCAVIGLGGTYKYIFGTGTRLKVLA
Vbeta: GVSQDPRHKITKRGQNVTFRCDPISEHNRLYWYRQTLGQGPEFLTYFQNEAQLEKSRLLSDRFSAERPKGSFSTLEIQRTEQGDSAMYLCASSLVKGEKLFFGSGTQLSVL
B5: HA-1H TCR16 (TCR, V domains shown)
Valpha: KQEVTQIPAALSVPEGENLVLNCSFTDSAIYNLQWFRQDPGKGLTSLLLIQSSQREQTSGRLNASLDKSSGRSTLYIAASQPGDSATYLCAVHLLNDYKLSFGAGTTVTVRA
Vbeta: GVSQDPRHKITKRGQNVTFRCDPISEHNRLYWYRQTLGQGPEFLTYFQNEAQLEKSRLLSDRFSAERPKGSFSTLEIQRTEQGDSAMYLCASSLVVGNEQFFGPGTRLTVL

Molecular target: T1, HMHA1 (Rho GTPase-activating protein 45), minor histocompatibility antigen HA-1H, R139H polymorphism peptide … (human)
T1 peptide: VLHDDLLEA
Assay: chromium release, peptide titration on pulsed target cells; one value stated for the seven clones together (FIG. 2B); T cell clone or line
Method: (A) HLA-A2/HA-1^H multimer and CD8⁺ monoclonal antibody staining of seven (7) representative HA-1^H specific clones (1, 2, 10, 13, […], 16, and 5) and a control clone specific for another tumor antigen. (B) Data from a chromium release assay in which the seven HA-1^H-specific clones were tested for killing HA-1 peptide-pulsed target cells. (C) Data from cytotoxicity assays in which the HA-1^H-specific CTL clones were incubated with peptide-pulsed T2 cells, HA-1^H+ AML cell line THP-1, HA-1^H+ primary AML, or HA-1⁻ AML.
In addition, a chromium release assay (CRA) was used to test 7 of the HA-1-specific CTL clones (1, 2, 10, 13, 14, 16 and 5) for killing of HA-1^H peptide-pulsed targets. The T cell clones recognized HA-1^H peptide ([…])-pulsed target cells at very low peptide concentrations and half-maximal lysis is seen at a peptide concentration of 10 pM. (FIG. 2B) (ICC data not shown). Cytotoxicity of the isolated clones against cells with or without endogenous HA-1^H expression was also examined. The assays show 7 HA-1^H-specific CTL clones (TCR1, TCR2, TCR10, TCR13, TCR14, TCR16 and TCR5) lysing HA-1^H+ acute myeloid leukemia (AML) cell line (THP-1) and HA-1^H+ primary AML but not HA-1^H- AML (FIG. 2C).

Q: With B1 as the binder, how does the EC50 of peptide read?
A: 0.01 nM

Q: B2 was tested. Which EC50 of peptide did it give?
A: 0.01 nM

Q: B3 was tested. Which EC50 of peptide did it give?
A: 0.01 nM

Q: For B4, which EC50 of peptide is on record?
A: 0.01 nM

Q: How did the EC50 of peptide turn out when B5 was run?
A: 0.01 nM
